Test results from patent US20060246421.

Protein | amplitude of single turnover DNA unwinding (processivity)
NS3 helicase (NS3h), wild type, hepatitis C virus (protein) AVDFVPVESMETTMRSPVFTDNSSPPAVPQTFQVAHLHAPTGSGKSTKVPAAYAAQGYKVLVLNPSVAATLGFGAYMSKAHGIDPNIRTGVRTITTGAPITYSTYGKFLADGGCSGGAYDIIICDECHSTDSTTILGIGTVLDQAETAGARLVVLATATPPGSVTVPHPNIEEVALSSTGEIPFYGKAIPIETIKGGRHLIFCHSKKKCDELAAKLSGLGLNAVAYYRGLDVSVIPTSGDVIVVATDALMTGFTGDFDSVIDCNTCVTQTVDFSLDPTFTIETTTVPQDAVSRSQRRGRTGRGRMGIYRFVTPGERPSGMFDSSVLCECYDAGCAWYELTPAETSVRLRAYLNTPGLPVCQDHLEFWESVFTGLTHIDAHFLSQTKQAGDNFPYLVAYQATVCARAQAPPPSWDQMWKCLIRLKPTLHGPTPLLYRLGAVQNEVTTTHPITKYIMACMSADLEVVT | 0.35 ± 0.01 nM
NS3h KDA (D543K/H545D/Q549A mutant NS3 helicase) (protein) AVDFVPVESMETTMRSPVFTDNSSPPAVPQTFQVAHLHAPTGSGKSTKVPAAYAAQGYKVLVLNPSVAATLGFGAYMSKAHGIDPNIRTGVRTITTGAPITYSTYGKFLADGGCSGGAYDIIICDECHSTDSTTILGIGTVLDQAETAGARLVVLATATPPGSVTVPHPNIEEVALSSTGEIPFYGKAIPIETIKGGRHLIFCHSKKKCDELAAKLSGLGLNAVAYYRGLDVSVIPTSGDVIVVATDALMTGFTGDFDSVIDCNTCVTQTVDFSLDPTFTIETTTVPQDAVSRSQRRGRTGRGRMGIYRFVTPGERPSGMFDSSVLCECYDAGCAWYELTPAETSVRLRAYLNTPGLPVCQDHLEFWESVFTGLTHIKADFLSATKQAGDNFPYLVAYQATVCARAQAPPPSWDQMWKCLIRLKPTLHGPTPLLYRLGAVQNEVTTTHPITKYIMACMSADLEVVT | 0.21 ± 0.01 nM
